Laboratory results as given in the supplement of paper PMC10567573.

B1: PLAGL1 (parent)
chain: TKEKKHQCDHCERCFYTRKDVRRH

Variants of: B1
Assay: protein stability index of a GFP-peptide fusion (GPS, HEK-293T) (PSI 1-6); higher = more stable
Settings: c terminus: a fixed tail appended
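Further: lentivirally expressed fusions sorted by FACS into six bins by GFP to DsRed ratio, PSI derived from sequencing read proportions per bin multiplied by bin number.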

Protein stability index of substitutions, site by site:
R13: V 3.41; M 3.26; L 3.27; E 3.66; K 3.54; P 2.75; D 3.79; W 2.61; A 3.77; Y 2.63; C 3.39; F 3; S 3.35; I 2.62; T 3.06; G 3.25; N 3.81; Q 4.24; H 3.87
K4: Y 3.03; I 3.57; C 3.87; R 3.29; H 3.42; S 2.93; N 3.08; T 3.27; E 4.01; Q 3.4; V 3.24; W 2.95; M 3.27; F 3.21; L 2.9; A 3.32; G 3.49; D 3.84; P 3.33
C8: S 3.48; Y 2.78; A 3.53; F 2.6; M 2.98; H 3.25; T 3.24; Q 3.53; G 3.02; W 2.75; N 3.29; I 3.1; L 3.56; P 3.17; R 3.42; K 3.43; E 3.84; V 3.12; D 3.61
K2: R 3.77; W 3.16; H 3.55; Q 3.67; L 2.75; V 3.3; G 3.15; I 3.08; M 3.71; N 3.21; Y 3.21; E 3.65; A 3.58; P 3.1; C 3.25; S 3.39; T 3.67; F 3.02; D 4.04
D9: N 4.02; P 3.11; K 3.24; E 3.32; V 2.47; G 3.66; Q 3; C 3.14; H 3.02; S 3.14; A 2.67; T 2.92; Y 2.46; W 2.84; M 3.5; R 2.92; I 2.53; F 2.31; L 2.98
Q7: R 3.33; W 2.77; C 3.36; G 2.89; S 3.25; H 3.73; D 3.43; F 2.91; E 3.31; N 3.21; A 3.41; I 3.32; K 3.8; Y 2.81; M 2.71; P 2.82; V 3.23; L 2.54; T 2.74
F15: E 3.61; K 3.94; Y 3.48; N 3.48; S 3.05; G 2.83; A 3.79; C 2.83; D 2.98; V 3.47; R 3.77; L 3.9; W 3.41; P 3.06; M 4.05; H 3.46; I 3.62; Q 3.79; T 4.24
R18: D 3.82; A 3.54; K 3.09; M 2.95; H 3.29; F 2.76; L 3.76; C 3.06; I 3.06; G 2.87; E 3.61
H6: G 2.88; L 2.5; F 3.01; W 2.51; D 2.91; T 2.86; Y 3.43; I 2.94; N 3.33; K 3.19; Q 3.08; R 2.95; P 2.94; S 2.88; E 3.55; M 2.7; V 2.67; A 2.39; C 3.7
C11: Q 3.91; M 3.57; A 3.62; W 3.46; Y 3.22; D 3.96; F 3.27; N 3.39; V 3.73; S 3.42; T 3.24; I 3.65; R 4.11; G 3.61; E 4.31; K 3.86; H 3.31; L 3.71; P 3.98
H10: V 3.37; Q 3.47; Y 2.46; L 2.55; R 3.41; E 3.37; F 2.36; D 3.79; G 4.13; S 3.68; N 3.6; P 3.4; A 3.33; W 2.67; C 3.33; T 3.37; M 3.33; I 2.71; K 3.91
K5: C 2.59; D 3.53; I 3.13; W 3.06; G 3.04; Y 3.19; S 3.46; E 3.67; M 3.81; V 3.63; N 3.03; A 3.78; L 3.67; F 3.22; H 3.82; P 3.67; Q 3.67; R 3.75; T 3.22
T1: C 3.75; W 3.54; Q 3.52; M 3.39; D 3.04; F 3.1; H 3.12; K 3.59; Y 3.31; S 3.46; E 3.82; V 3.5; L 3.34; A 3.1; I 3.57; G 3.68; N 3.38; R 3.37; P 3.48
T17: V 3.22; W 2.74; S 3.12; P 3.1; I 3.01; N 3.7; D 3.61; G 3.05; Q 3.44; C 4.01; L 3.77; E 3.81; H 3.29; A 3.6; M 3.26; F 4.01; Y 3.09; K 3.4; R 3.63
E3: Y 3.12; T 3.32; P 3.63; N 3.59; L 3.14; A 3.31; W 2.73; I 3.01; F 3.29; K 3.5; H 3.55; M 3.53; G 3.45; D 3.49; S 3.48; Q 3.35; R 3.59; C 4.51; V 3.28
E12: G 4.02; P 4.17; F 3.12; T 3.15; I 2.89; R 3.15; S 3.03; Y 3.3; N 3.19; W 2.69; L 3; K 3.09; C 3.27; V 3.24; A 3.05; M 3.15; H 3.34; D 3.6; Q 3.15
C14: I 2.65; A 3.11; H 3.12; E 3.69; W 3.65; S 3.28; D 3.54; Y 3.27; K 3.78; V 3.42; N 3.25; R 3.16; T 3.6; F 3.18; G 4.02; L 3.06; P 3.29; Q 3.41; M 3.52
Y16: S 3.63; N 4.2; W 3.26; K 3.14; A 4.02; M 3.75; G 3.79; E 4.19; D 4.12; T 3.58; H 3.46; I 3.18; P 3.13; Q 3.88; C 3.74; R 4; V 3.75; L 3.4; F 3.58
